Three molecules from PMC11259845, “Potent anti-coronaviral activity of pateamines and new insights into their mode of action” can be followed below.

Conditions in all cases: protein: recombinant; tags: N-terminal 6xHis, thrombin site
The target in series [1] is T1, eIF4A1(19-406) WT (human, UniProt P60842 19-406). The experiment in a line: thermal shift assay; PatA, AMP-PNP, 5 mM Mg2+; TSA: 5 uM eIF4A1(19-406), 50 uM RNA, 1 mM AMP-PNP, 100 uM inhibitor, 75 uM SYPRO Orange, 20 mM HEPES-KOH pH 7.5, 100 mM KCl, 5 mM MgCl2, 1 mM DTT, 10% glycerol; melt 10-95 C.
In series [2] the target is T1, eIF4A1(19-406) WT. The experiment in a line: thermal shift assay; silvestrol, AMP-PNP, 5 mM Mg2+; TSA: 5 uM eIF4A1(19-406), 50 uM RNA, 1 mM AMP-PNP, 100 uM inhibitor, 75 uM SYPRO Orange, 20 mM HEPES-KOH pH 7.5, 100 mM KCl, 5 mM MgCl2, 1 mM DTT, 10% glycerol; melt 10-95 C.
Series [3] deals with T1, eIF4A1(19-406) WT. Kind of series: thermal shift assay; DMDAPatA, AMP-PNP, 5 mM Mg2+; TSA: 5 uM eIF4A1(19-406), 50 uM RNA, 1 mM AMP-PNP, 100 uM inhibitor, 75 uM SYPRO Orange, 20 mM HEPES-KOH pH 7.5, 100 mM KCl, 5 mM MgCl2, 1 mM DTT, 10% glycerol; melt 10-95 C.

T1 sequence (P60842 19-406): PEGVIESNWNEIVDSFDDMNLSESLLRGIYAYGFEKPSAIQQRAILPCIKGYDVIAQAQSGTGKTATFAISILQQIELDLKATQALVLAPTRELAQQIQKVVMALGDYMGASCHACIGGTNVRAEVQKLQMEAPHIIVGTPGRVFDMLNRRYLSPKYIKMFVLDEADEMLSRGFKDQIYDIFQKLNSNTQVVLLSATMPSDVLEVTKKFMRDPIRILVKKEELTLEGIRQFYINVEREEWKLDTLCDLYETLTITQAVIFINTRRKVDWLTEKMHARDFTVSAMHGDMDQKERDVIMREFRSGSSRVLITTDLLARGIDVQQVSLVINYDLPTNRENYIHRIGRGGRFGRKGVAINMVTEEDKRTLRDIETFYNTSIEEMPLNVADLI

For GAGAGAGAGA (ssRNA) [(GA)5], the binding result with eIF4A1(19-406) WT [1] and with eIF4A1(19-406) WT [2] was “binds” in each case.
In the case of AGAGAGAGAG (ssRNA) [(AG)5], the binding result in the series with eIF4A1(19-406) WT [1] and with eIF4A1(19-406) WT [2] was “binds” throughout.
Consider UGUGUGUGUG (ssRNA) [(UG)5], for which the binding result with eIF4A1(19-406) WT [1] and with eIF4A1(19-406) WT [3] was “binds” throughout.
